Assay results from paper PMC6256756.

Substrate: Nc1nc2c(ncn2[C@@H]2O[C@H](COP(=O)(O)OP(=O)(O)OP(=O)(O)O)[C@@H](O)[C@H]2O)c(=O)[nH]1
Assay: steady-state kinetics, PK/LDH coupled GTPase assay (Km)
Assay type: biochemical, Burkholderia cenocepacia
Conditions: Mg2+ GTP binding site

B1: FtsZ (BcFtsZ) (Burkholderia cenocepacia J2315) (protein)
chain: MEFEMLETETNGTIIKVVGVGGAGGNAVQHMINRGVQGVDFIVMNTDAQALSRSRASSVIQLGNTGLGAGAKPEMGRAAAEEARERIADALRGAHMVFITAGMGGGTGTGAAPVVAQIAKEMGILTVGVVSKPFEFEGGKRMRVAEAGSQQLEDHVDSLIVVLNDKLFDVMGDDAEMDKCFQCADDVLNNAVAGIAEIINVDGLVNVDFEDVKTVMGEQGKAMMGTATVAGVDRARLAAEQAVASPLLEGVDLSGARGVLVNITSSRSLRLSETREVMNTIKSYAAEDATVIFGAVYDDAMGDALRVTVVATGLGRAAKKQQSAPMTLLRTGTDNQPVSAVSHGYAPAQHVSTADYGALDTPAVWRNSRETAASHVQALQEKGVDTYDIPAFLRKQAD
notes: recombinant BcFtsZ (BCAL3457) from pET-28a, N-terminal histidine tag removed with PreScission protease
- Km: 6.4 ± 0.8 µM
